{"source": "patent US20200017552A1", "key": {"[1]": {"target": "HA of Ft. Monmouth influenza virus (on virions) (influenza virus strain Ft. Monmouth)", "experiment": "cell-based or functional assay"}, "[2]": {"target": "Influenza H1 hemagglutinin (HA), strain not stated for this experiment", "experiment": "biolayer interferometry after incubation at 80 °C; HA strain not stated"}}}
{"substance": "mAb FI6v3 (antibody)", "values": [{"measurement": "EC50 values for inhibition of viral replication in vitro", "setting": "[1]", "result": 3.1, "unit": "µg/mL"}, {"measurement": "reduction of binding activity after 1 hr at 80 °C", "setting": "[2]", "result": 74, "unit": "%"}]}
